This test concerns the target GMP-140 receptors on the surface of leukocytes (human). Put plainly: neutrophil adhesion to GMP-140 coated wells, peptide preincubated with neutrophils, myeloperoxidase read-out.

Values joined by “and” are separate entries in the source; they are usually repeats but may differ in a detail not shown here. Equal values may be shown once. Non-standard residues stand in square brackets, D forms with d. No end group written: not given here. *: point of attachment. Fmoc = O=C(OCC1c2ccccc2-c2ccccc21)*

For the molecule RKNNKTWTWE-NH2, the percent inhibition of neutrophil binding to GMP-140 at 0.1 mM peptide amounted to 17% and the percent inhibition of neutrophil binding to GMP-140 at 0.5 mM peptide was found to be 20%.

For YKNNKTWTWV-NH2, the percent inhibition of neutrophil binding to GMP-140 at 0.1 mM peptide was 9%, the percent inhibition of neutrophil binding to GMP-140 at 0.5 mM peptide came to 98% and the percent inhibition of neutrophil binding to GMP-140 at 1.0 mM peptide was 104%.

Consider CRKNNKTWTWV-NH2, for which the percent inhibition of neutrophil binding to GMP-140 at 0.1 mM peptide turned out to be 87% and the percent inhibition of neutrophil binding to GMP-140 at 1.0 mM peptide was 105%.

B1: r…-NH2 (peptide)
peptide: [dR]KIGGIWTWV-NH2
modifications: N-terminus assumed
SMILES: CC[C@H](C)[C@H](NC(=O)CNC(=O)CNC(=O)[C@@H](NC(=O)[C@H](CCCCN)NC(=O)[C@H](N)CCCNC(=N)N)[C@@H](C)CC)C(=O)N[C@@H](Cc1c[nH]c2ccccc12)C(=O)N[C@H](C(=O)N[C@@H](Cc1c[nH]c2ccccc12)C(=O)N[C@H](C(N)=O)C(C)C)[C@@H](C)O
For the molecule B1, the percent inhibition of neutrophil binding to GMP-140 at 0.1 mM peptide worked out at 95% and the percent inhibition of neutrophil binding to GMP-140 at 0.5 mM peptide was found to be 96%.

On to RKVNNVWVWV, for which the percent inhibition of neutrophil binding to GMP-140 at 0.1 mM peptide stood at 82% and the percent inhibition of neutrophil binding to GMP-140 at 0.5 mM peptide is 98%.

As for RKNNKTWT-NH2 [RKNNKTWT-NH2], the percent inhibition of neutrophil binding to GMP-140 at 0.1 mM peptide is 26%, the percent inhibition of neutrophil binding to GMP-140 at 0.5 mM peptide stood at 23% and the percent inhibition of neutrophil binding to GMP-140 at 1.0 mM peptide was found to be 34%.

For the molecule RKVNNVW-NH2 [RKVNNVW-NH2], the percent inhibition of neutrophil binding to GMP-140 at 1.0 mM peptide is 17%.

As for RKNNGTWTWV-NH2, the percent inhibition of neutrophil binding to GMP-140 at 0.1 mM peptide is 46%, the percent inhibition of neutrophil binding to GMP-140 at 0.5 mM peptide came to 99% and the percent inhibition of neutrophil binding to GMP-140 at 1.0 mM peptide was 99%.

For RENNKTWTWV-NH2, the percent inhibition of neutrophil binding to GMP-140 at 0.1 mM peptide amounted to 34%, the percent inhibition of neutrophil binding to GMP-140 at 0.5 mM peptide turned out to be 94% and the percent inhibition of neutrophil binding to GMP-140 at 1.0 mM peptide amounted to 96%.

Take RKNNKTW-NH2 [RKNNKTW-NH2]: the percent inhibition of neutrophil binding to GMP-140 at 0.1 mM peptide stood at 31%, the percent inhibition of neutrophil binding to GMP-140 at 0.5 mM peptide was determined as 53% and the percent inhibition of neutrophil binding to GMP-140 at 1.0 mM peptide turned out to be 99%.

For the molecule RKNNKTWTWV-NH2, the percent inhibition of neutrophil binding to GMP-140 at 0.1 mM peptide is 13% and 14%; the percent inhibition of neutrophil binding to GMP-140 at 0.5 mM peptide is 20% and 30%.

For RKIGGIWTWV-NH2, the percent inhibition of neutrophil binding to GMP-140 at 0.1 mM peptide worked out at 96%, the percent inhibition of neutrophil binding to GMP-140 at 0.5 mM peptide was 103% and the percent inhibition of neutrophil binding to GMP-140 at 1.0 mM peptide is 105%.

Regarding RKNNKTWTWVGTKKALTNEC-NH2, the percent inhibition of neutrophil binding to GMP-140 at 0.1 mM peptide came to 9% and the percent inhibition of neutrophil binding to GMP-140 at 1.0 mM peptide came to 47%.

B2: FMOC-NNKTW-NH2 (peptide)
peptide: Fmoc-NNKTW-NH2
SMILES: C[C@@H](O)[C@H](NC(=O)[C@H](CCCCN)NC(=O)[C@H](CC(N)=O)NC(=O)[C@H](CC(N)=O)NC(=O)OCC1c2ccccc2-c2ccccc21)C(=O)N[C@@H](Cc1c[nH]c2ccccc12)C(N)=O
Take B2: the percent inhibition of neutrophil binding to GMP-140 at 0.1 mM peptide amounted to 85%, the percent inhibition of neutrophil binding to GMP-140 at 0.5 mM peptide amounted to 100% and the percent inhibition of neutrophil binding to GMP-140 at 1.0 mM peptide amounted to 99%.

On to Ac-RKNNKTWTWV-NH2 [Ac-…-NH2], for which the percent inhibition of neutrophil binding to GMP-140 at 0.1 mM peptide came out at 35% and the percent inhibition of neutrophil binding to GMP-140 at 0.5 mM peptide was 50%.

Consider KWKWNRTNVT-NH2 […-NH2 (control peptide)], for which the percent inhibition of neutrophil binding to GMP-140 at 0.1 mM peptide worked out at 0%, the percent inhibition of neutrophil binding to GMP-140 at 0.5 mM peptide is 0% and the percent inhibition of neutrophil binding to GMP-140 at 1.0 mM peptide was 0%.

Regarding RKVNNVWVWV-NH2, the percent inhibition of neutrophil binding to GMP-140 at 0.1 mM peptide amounted to 94% and the percent inhibition of neutrophil binding to GMP-140 at 0.5 mM peptide turned out to be 102%.

Take RKNNKTWTWV: the percent inhibition of neutrophil binding to GMP-140 at 0.1 mM peptide came to 14% and the percent inhibition of neutrophil binding to GMP-140 at 1.0 mM peptide was 35%.

B3: RkIGGIWTWV-NH2 (peptide)
peptide: R[dK]IGGIWTWV-NH2
modifications: N-terminus assumed
SMILES: CC[C@H](C)[C@H](NC(=O)CNC(=O)CNC(=O)[C@@H](NC(=O)[C@@H](CCCCN)NC(=O)[C@@H](N)CCCNC(=N)N)[C@@H](C)CC)C(=O)N[C@@H](Cc1c[nH]c2ccccc12)C(=O)N[C@H](C(=O)N[C@@H](Cc1c[nH]c2ccccc12)C(=O)N[C@H](C(N)=O)C(C)C)[C@@H](C)O
For the molecule B3, the percent inhibition of neutrophil binding to GMP-140 at 0.1 mM peptide came to 67%, the percent inhibition of neutrophil binding to GMP-140 at 0.5 mM peptide amounted to 88% and the percent inhibition of neutrophil binding to GMP-140 at 1.0 mM peptide is 97%.

The values above are taken from patent US6528487B1, “Peptide inhibitors of inflammation mediated by selectins” (Centocor, Inc., priority 1991, dated 2003).
